Results reported in PMC13061415, “A structural code for assembly specificity in GID/CTLH-type E3 ligases” (eLife, 2026).

Key:
Conditions in all cases: both partners purified
Wdr26 (102–641) = target: T1, Wdr26 (102–641) (mouse, UniProt Q8C6G8 102-641); assay: ITC; Twa1_52 CTLH-CRA (192 μM, syringe) titrated into muskelin (1–735) or Wdr26 (102–641) (19 μM, cell); 25°C; 20 mM tricine pH 8.0, 500 mM NaCl, 1 mM TCEP; one-site model
T1 construct: Wdr26, mouse, residues 102-641; also called dimeric Wdr26; (near) full-length Wdr26; source: E. coli BL21 CodonPlus (DE3) RIL, purified as described previously (van gen Hassend et al., 2023)
T1 sequence (looked up): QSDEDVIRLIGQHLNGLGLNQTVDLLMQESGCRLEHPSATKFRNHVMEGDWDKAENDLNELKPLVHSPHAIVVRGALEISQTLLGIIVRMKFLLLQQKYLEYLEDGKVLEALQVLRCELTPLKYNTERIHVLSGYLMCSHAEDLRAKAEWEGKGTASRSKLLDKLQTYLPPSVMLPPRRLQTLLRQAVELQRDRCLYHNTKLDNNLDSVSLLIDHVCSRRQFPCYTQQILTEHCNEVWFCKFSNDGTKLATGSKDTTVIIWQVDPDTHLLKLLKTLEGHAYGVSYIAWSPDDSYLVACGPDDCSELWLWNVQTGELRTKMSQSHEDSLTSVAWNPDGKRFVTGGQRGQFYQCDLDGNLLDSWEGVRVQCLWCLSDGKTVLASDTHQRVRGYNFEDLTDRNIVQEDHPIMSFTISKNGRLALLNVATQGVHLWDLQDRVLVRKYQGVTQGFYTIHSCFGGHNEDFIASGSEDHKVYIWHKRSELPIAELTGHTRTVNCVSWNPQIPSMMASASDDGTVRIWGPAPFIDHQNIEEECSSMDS

muskelin (1–735) = target: T2, muskelin (1–735) (rat, UniProt Q99PV3 1-735); assay: as above
T2 construct: muskelin, rat, residues 1-735; also called full-length muskelin; tetrameric muskelin; source: E. coli BL21 CodonPlus (DE3) RIL, purified as described previously (van gen Hassend et al., 2023)
T2 sequence (Q99PV3 whole entry, the tested form may be a part): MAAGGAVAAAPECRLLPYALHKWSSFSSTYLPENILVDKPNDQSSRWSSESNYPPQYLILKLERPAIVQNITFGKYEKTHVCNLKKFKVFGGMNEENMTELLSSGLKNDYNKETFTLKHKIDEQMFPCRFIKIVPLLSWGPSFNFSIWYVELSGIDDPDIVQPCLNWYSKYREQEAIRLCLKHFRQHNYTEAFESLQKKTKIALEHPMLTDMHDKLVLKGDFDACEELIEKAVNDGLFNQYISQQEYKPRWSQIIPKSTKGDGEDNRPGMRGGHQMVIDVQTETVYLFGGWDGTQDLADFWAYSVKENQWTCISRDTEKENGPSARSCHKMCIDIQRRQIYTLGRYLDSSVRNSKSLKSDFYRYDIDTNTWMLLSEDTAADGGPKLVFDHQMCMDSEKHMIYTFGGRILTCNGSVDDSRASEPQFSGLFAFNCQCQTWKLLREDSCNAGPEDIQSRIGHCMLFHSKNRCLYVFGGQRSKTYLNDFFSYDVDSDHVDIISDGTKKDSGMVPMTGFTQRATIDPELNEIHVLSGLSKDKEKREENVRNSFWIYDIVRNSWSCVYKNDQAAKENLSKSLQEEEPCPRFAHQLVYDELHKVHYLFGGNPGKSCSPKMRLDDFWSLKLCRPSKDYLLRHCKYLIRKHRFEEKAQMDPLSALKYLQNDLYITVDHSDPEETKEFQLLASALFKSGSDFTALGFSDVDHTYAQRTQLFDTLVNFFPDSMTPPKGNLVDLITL

[1] = target: T3, muskelin CTLH-CRA domain (205–735 Δ248–625) (rat, UniProt Q99PV3 205-735, Δ248–625); assay: ITC; muskelin CTLH-CRA (160 μM, syringe) titrated into RanBP10 or Twa1 CTLH-CRA variants (16 μM, cell); 25°C; 20 mM tricine pH 8.0, 500 mM NaCl, 1 mM TCEP; one-site model
T3 construct: muskelin, rat, fusion of the CTLH motif and the C-terminus (CRA^N-like): residues 205-735 with 248-625 deleted; also called muskelin wt; CTLH-Ct construct; source: E. coli BL21 CodonPlus (DE3) RIL, purified as described previously (van gen Hassend et al., 2023)
T3 sequence (Q99PV3 other isoform, or with tags, fused parts or gaps Δ248–625 | Δ248–625 | mutant): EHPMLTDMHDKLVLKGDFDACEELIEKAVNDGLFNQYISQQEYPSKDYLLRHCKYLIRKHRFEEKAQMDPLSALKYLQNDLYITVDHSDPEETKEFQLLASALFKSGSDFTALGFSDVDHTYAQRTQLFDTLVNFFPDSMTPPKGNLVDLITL

[2] = target: muskelin CTLH-CRA domain co-expressed with Twa1_52 (rat); assay: SEC-MALS; CTLH-CRA domain complexes co-expressed in E. coli and purified as complexes; Superdex 75 10/300 GL; 20 mM tricine pH 8.0, 500 mM NaCl, 1 mM TCEP
muskelin CTLH-CRA domain co-expressed with Twa1_52 (rat), sequence (chain, as listed by the source): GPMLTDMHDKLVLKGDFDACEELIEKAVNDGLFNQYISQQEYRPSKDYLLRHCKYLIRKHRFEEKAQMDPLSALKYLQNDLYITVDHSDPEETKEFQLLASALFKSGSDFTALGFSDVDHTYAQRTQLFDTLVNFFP

[3] = target: T4, Wdr26 CTLH-CRA domain (136-278) (mouse, UniProt Q8C6G8 136-278); assay: as above
T4 construct: Wdr26, mouse, residues 136-278; Could not be purified on its own; source: E. coli BL21 CodonPlus (DE3) RIL, co-expressed with tagless Twa1_52, complex purified (Ni-IDA, 3C cleavage, SEC); not shown: His6, N-terminal, cleaved
T4 sequence (looked up): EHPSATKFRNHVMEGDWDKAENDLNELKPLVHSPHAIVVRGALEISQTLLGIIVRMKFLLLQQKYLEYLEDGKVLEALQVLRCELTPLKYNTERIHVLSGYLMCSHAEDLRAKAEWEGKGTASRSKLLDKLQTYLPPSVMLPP

B1: Twa1_52 mutant (A125G, Q126R, Δ127T, L140K, E144K, L147F, F152Y, F160V), CTLH-CRA domain (domain or fragment, mouse, UniProt Q9D7M1 58-190, looked up)
chain: SVDLETLDERIKIREMILKGQIQEAIALINSLHPELLDTNRYLYFHLQQQHLIELIRQRETEAALEFGRQLAEQGEESRECKTEMKRTFALLAYDSPEESPVGDLLHMMQRQKVWSEVNQAVLDYENRESTP
notes: Twa1, mouse, CTLH-CRA domain 58-190 with eight changes; source: E. coli BL21 CodonPlus (DE3) RIL, purified (Ni-IDA, 3C cleavage, SEC); also tagless, co-expressed with muskelin or Wdr26 CTLH-CRA domain; not shown: His6, N-terminal, cleaved
- Kd (Wdr26 (102–641)): 15.9 nM
- Kd (muskelin (1–735)): 17.9 nM
- Kd [1]: 146 nM
- stoichiometry N [2]: 1
- stoichiometry N [3]: 1
